Laboratory results: the supplement of paper PMC12764529
± gives the half width of the 95% confidence interval.

Assays:
[1] = folding stability dG unfold from trypsin proteolysis; higher = more stable
How it was run: (§1)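 Designed mini-proteins (under 80 residues, no cysteine) in a PA-tagged cDNA display construct were digested with trypsin and chymotrypsin. Each protease was used at 11 concentrations (threefold dilutions) plus a no-protease condition, followed by sequencing. K50 was inferred by Bayesian fitting of sequencing counts, and unfolding free energy was derived against a sequence-predicted unfolded-state K50 and a shared folded-state K50, per protease or combined. Only designs with AlphaFold2 dimer inter-PAE above 15 were kept.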

[2] = folding stability dG unfold from chymotrypsin proteolysis; higher = more stable
How it was run: as §1

[3] = folding stability dG unfold (combined trypsin and chymotrypsin); higher = more stable
How it was run: as §1

Row | Sequence | folding stability dG unfold [1] | folding stability dG unfold [2] | folding stability dG unfold [3]
1 | SAGGSAGGSMPFIKVKVRFIEPNGIERTFEIELPEDKNLDEAIKLAPLFAKNGLPVEIEEVEGSAGGSAGGS [r12_804_TrMRF] | 0.758 ± 0.089 kcal/mol | 0.0494 ± 0.44 kcal/mol | 0.466 ± 0.18 kcal/mol
2 | SAGGSAGGSMPLKLVELKPLEESTGENGVPTVRVELVLERPGERITVELEVSPEEIEALIKKLLSAGGSAGG [r6_379_JUSTAS] | 2.03 ± 0.074 kcal/mol | 1.07 ± 0.2 kcal/mol | 1.56 ± 0.19 kcal/mol
3 | SAGGSAGGSMPPLAPDETVTQTLPSPDGSEVLVTYTWVPGEGLVETKVTDPATGKTTSTKTPVPSAGGSAGG [r6_440_JUSTAS] | 0.0545 ± 0.067 kcal/mol | -0.521 ± 0.31 kcal/mol | -0.0833 ± 0.16 kcal/mol
4 | SAGGSAGGSMPTSSSSSLSSEAEVEALIEELKKKGAKEFTVDPGPGALTLTITYDDSTLTISSSAGGSAGGS [r12_846_JUSTAS] | 0.838 ± 0.033 kcal/mol | 1.38 ± 0.057 kcal/mol | 1.12 ± 0.11 kcal/mol
5 | SAGGSAGGSMPVVVEPTTIGDIEVTRVVLPDGTVVVYTKAPTTLKVTYRPLATGEEEEEVFPELSAGGSAGG [r6_555_JUSTAS] | 1.01 ± 0.011 kcal/mol | 0.829 ± 0.11 kcal/mol | 1.01 ± 0.056 kcal/mol
6 | SAGGSAGGSMRTITYEFPPGTTKEEVIEKVKELAKKEGLPIEKIESITEDPETGTYTVTVVVKSAGGSAGGS [r12_131_JUSTAS] | 4.2 ± 0.42 kcal/mol | 4.65 ± 0.14 kcal/mol | 4.59 ± 0.34 kcal/mol
7 | SAGGSAGGSMRVRFLVTEPGLGPETAALRVERRLLEEYPVRVKGVRVRTRPDGGYLVVVEVEPSAGGSAGGS [r12_781_TrMRF] | 0.673 ± 0.076 kcal/mol | 1.03 ± 0.1 kcal/mol | 0.94 ± 0.088 kcal/mol
8 | SAGGSAGGSMSTSLSLSSAPGVSVVTTAHPDSTVVTEQPPDGSRVVRVLDPAGELVAEEAVAPSAGGSAGGS [r12_471_JUSTAS] | -0.623 ± 0.36 kcal/mol | -0.302 ± 0.16 kcal/mol | -0.33 ± 0.15 kcal/mol
9 | SAGGSAGGSMTFEILPDGKTKTLTLDEAKELILNEVPPDTTVVNLDTGKVISAEEFLKLLGIKVSAGGSAGG [r6_937_JUSTAS] | 0.998 ± 0.016 kcal/mol | 0.943 ± 0.084 kcal/mol | 0.998 ± 0.084 kcal/mol
10 | SAGGSAGGSMTIDGNALYEELGKDLPDEEKRKLFEEKAEEIAKKLGIPNMKVNINIKKPNEIKSAGGSAGGS [r12_666_JUSTAS] | -0.213 ± 0.093 kcal/mol | 0.135 ± 0.051 kcal/mol | 0.0998 ± 0.078 kcal/mol
11 | SAGGSAGGSMTITKRSDGTIEVEIEISPEHPDVSPEEVKERVKKELEKKGIKTPVKITVKPVPESAGGSAGG [r6_480_JUSTAS] | 1.35 ± 0.044 kcal/mol | 2.27 ± 0.14 kcal/mol | 1.92 ± 0.19 kcal/mol
12 | SAGGSAGGSMTIVDPETGETLEIIEVKKNEDGKESFIFRISSPKPRYFIIDKDGNIRVIEKKDSAGGSAGGS [r12_205_TrROS_Hall] | 1.36 ± 0.022 kcal/mol | 1.23 ± 0.2 kcal/mol | 1.34 ± 0.074 kcal/mol
13 | SAGGSAGGSMTIVIKVKSKEDALEAAKALLAELGIEEGAEVKKIEVEEVDPENKEYYVRIEVKSAGGSAGGS [r12_999_TrROS_Hall] | 1.72 ± 0.13 kcal/mol | 1.7 ± 0.029 kcal/mol | 1.75 ± 0.14 kcal/mol
14 | SAGGSAGGSMTPVPGGYVITIETPAPGGVPLATLYVPSREEAEAAIAEIPAEDLTAVTVEPVLLSAGGSAGG [r6_705_JUSTAS] | 0.714 ± 0.034 kcal/mol | 0.566 ± 0.13 kcal/mol | 0.719 ± 0.081 kcal/mol
15 | SAGGSAGGSMVEYTFTVYDPRTGKETLFTVPSDIPFEEAKEKVEKEIRKGLPPNYTVTFTKPASAGGSAGGS [r20_213_JUSTAS] | 1.75 ± 0.035 kcal/mol | 1.45 ± 0.11 kcal/mol | 1.58 ± 0.089 kcal/mol
16 | SAGGSAGGSMVLNFEDTKPGVSPEEAAARVAAKIRAEHDVAVLGVEVETSPTGGYHITITVDPSAGGSAGGS [r12_781_JUSTAS] | 0.325 ± 0.059 kcal/mol | 0.272 ± 0.08 kcal/mol | 0.391 ± 0.062 kcal/mol
17 | SAGGSAGGSMVPGKLLVTITDPNNGLTTTLDLPLEVKTEEDIEAEVQKIKEENPGKKVSVKLLSAGGSAGGS [r12_65_JUSTAS] | 1.65 ± 0.057 kcal/mol | 1.687 ± 0.013 kcal/mol | 1.69 ± 0.054 kcal/mol
18 | SAGGSAGGSMVTPDGRLVIEIEVSEEDIEKLKEEARKKLGVKEVKVEVEEKDGKLKVRIVVEPSAGGSAGGS [r12_929_TrROS_Hall] | 0.743 ± 0.092 kcal/mol | 2.19 ± 0.15 kcal/mol | 1.77 ± 0.29 kcal/mol

Row | Sequence | folding stability dG unfold [1] | folding stability dG unfold [2] | folding stability dG unfold [3]
19 | SAGGSAGGSMVVVRRLPDGRYLLEVRLEGESLRFEVDGEEEVERFAKALEELTGRPVEVLTVESAGGSAGGS [r12_783_TrMRF] | 4.56 ± 0.12 kcal/mol | 3.84 ± 0.043 kcal/mol | 4.15 ± 0.061 kcal/mol
20 | SAGGSAGGSMYIVNIKFYNPKTGKVLYIPIKTKKEKAEEIAKELAKKLPEIKYIKAEIKPDISSAGGSAGGS [r12_757_TrMRF] | 1.21 ± 0.093 kcal/mol | 1.74 ± 0.19 kcal/mol | 1.59 ± 0.19 kcal/mol
21 | SAGGSAGGSMYIVRIEVVNEETGKTEEIELEVSEEEAEELAKELAEKLPNIKEIKVEIRPLPESAGGSAGGS [r12_757_TrROS_Hall] | 1.37 ± 0.15 kcal/mol | 1.96 ± 0.051 kcal/mol | 1.66 ± 0.21 kcal/mol
22 | SAGGSAGGSMYRVRIKVRNRETGEWLEIELEVPEGVTEEELKAALRELFPDAEIVDIEIEKLPSAGGSAGGS [r12_738_TrROS_Hall] | 3.68 ± 0.14 kcal/mol | 4.34 ± 0.11 kcal/mol | 4.12 ± 0.2 kcal/mol
23 | SAGGSAGGSMYVVKIKLKVYGENGEEYYFELELEVPEDELGEIEIELPGENLEFEAEVEVLPGSAGGSAGGS [r12_354_TrMRF] | 2.63 ± 0.15 kcal/mol | 3.73 ± 0.12 kcal/mol | 3.38 ± 0.14 kcal/mol
24 | SAGGSAGGSNGDKKPPVKWEWVMIEIEIPPDDIDEIAEEFPGFSVNYERDNGHYRVNIMIPVPYSAGGSAGG [r6_686_TrROS] | 1.35 ± 0.021 kcal/mol | 1.94 ± 0.093 kcal/mol | 1.73 ± 0.089 kcal/mol
25 | SAGGSAGGSNMPIKNVELHPLPNGWYLIKIRYGGKTRTFLFPPGAPFEIPLPPGMEIDIYPLNSAGGSAGGS [r12_373_TrROS] | 3.73 ± 0.066 kcal/mol | 3.933 ± 0.038 kcal/mol | 3.84 ± 0.043 kcal/mol
26 | SAGGSAGGSNNPDKKKKPRYVVIQIELKWYPNPNGQWSPELEITATVPAGDLEDKDDAIKDIISAGGSAGGS [r12_933_TrROS] | 2.13 ± 0.098 kcal/mol | 1.29 ± 0.064 kcal/mol | 1.68 ± 0.17 kcal/mol
27 | SAGGSAGGSNWYQFTIPFPIPPDEPVEIKLPDGWEIHEIPPNSGRITIYMPMNNMDAIKEAIGSAGGSAGGS [r12_476_TrROS] | 1.214 ± 0.012 kcal/mol | 1.01 ± 0.045 kcal/mol | 1.19 ± 0.056 kcal/mol
28 | SAGGSAGGSPANIKITTTLDTETGYLTIVAYNPATGKVTVLTAKIYGNVPHIDGLEALFGALGSAGGSAGGS [r20_131_TrMRF] | 2.07 ± 0.086 kcal/mol | 3.02 ± 0.078 kcal/mol | 2.7 ± 0.18 kcal/mol
29 | SAGGSAGGSPAPDVTIEVKVTYDPETGALRIEVEATIPGGGKITIEYTIPPLDKIEIVGVKIESAGGSAGGS [r12_1029_TrMRF] | 2.63 ± 0.15 kcal/mol | 3.83 ± 0.2 kcal/mol | 3.6 ± 0.26 kcal/mol
30 | SAGGSAGGSPDAPPPPVNVVVPIPESELLSEEELPGGTTLRTYRLPDGTEITVRTAPDGRVTVDSAGGSAGG [r6_119_JUSTAS] | 3.01 ± 0.16 kcal/mol | 3.86 ± 0.059 kcal/mol | 3.57 ± 0.13 kcal/mol
31 | SAGGSAGGSPEVLASFPLKDGSVVIVARRPGEIRVLVVKSSDLENIPELKDIKVFPTFGDDPVSAGGSAGGS [r12_343_TrMRF] | 1.03 ± 0.041 kcal/mol | 1.18 ± 0.077 kcal/mol | 1.19 ± 0.05 kcal/mol
32 | SAGGSAGGSPGNYIIQIEIKFPGRKHTWHVDSPEEALEQLKNDLEKQHPNAPITDVEIEVFPLSAGGSAGGS [r12_429_TrROS] | 0.791 ± 0.2 kcal/mol | 0.155 ± 0.94 kcal/mol | 0.556 ± 0.46 kcal/mol
33 | SAGGSAGGSPIEEIVAELKVPPGTTVKFPDGSTITLNSREDLLKLAKEGYPPEKLKDITVEAVSAGGSAGGS [r12_430_JUSTAS] | 0.308 ± 0.071 kcal/mol | 1.08 ± 0.059 kcal/mol | 0.856 ± 0.089 kcal/mol
34 | SAGGSAGGSPKPIPIKIDEVWPNPDNGKDYIVKIEFPDGKKHTFTSPEDIRKLPGFDVEVYELSAGGSAGGS [r20_192_TrROS] | 0.123 ± 0.058 kcal/mol | 0.783 ± 0.27 kcal/mol | 0.621 ± 0.2 kcal/mol
35 | SAGGSAGGSPKVTTSTSSSVLGNGRLESTVSNPDLGVTTLTLTDPESDVVTTFTETAGSTTPAASAGGSAGG [r6_757_JUSTAS] | 0.132 ± 0.025 kcal/mol | 0.815 ± 0.037 kcal/mol | 0.606 ± 0.031 kcal/mol
36 | SAGGSAGGSPNPKNVKIYLVALDPDKPEVVAEASFNITVDTEEELEAILKELVPLFPGAKVFASAGGSAGGS [r12_1043_TrMRF] | 0.853 ± 0.086 kcal/mol | 1.25 ± 0.12 kcal/mol | 1.13 ± 0.1 kcal/mol
